Laboratory results published in patent publication US20090111745A1 (DOMANTIS, published 2009).

Columns and labels:
rat serum albumin [1] = molecular target: T1, rat serum albumin (rat, UniProt P02770 25-608); test: phage display selection on albumin (figure legend)
T1 construct: also called RSA

human serum albumin [2] = molecular target: T2, human serum albumin (human, UniProt P02768 25-609); test: BIACORE SPR screen, column 'Biacore binding'
T2 construct: also called HSA; HAS
Description: (§1) If a significant proportion of the clones in one of the selections were positive in the phage ELISA, then DNA from this selection was cloned into an expression vector for production of soluble dAb, and individual colonies were picked. […] Clones were then sequenced and unique dAb sequences identified.

human serum albumin [3] = molecular target: T2, human serum albumin; test: phage display selection on albumin (figure legend)
mouse serum albumin [4] = molecular target: T3, mouse serum albumin (mouse, UniProt P07724 25-608); test: BIACORE SPR screen, column 'Biacore binding'
T3 construct: also called MSA
Description: as §1

rat serum albumin [5] = molecular target: T1, rat serum albumin; test: BIACORE SPR screen, column 'Biacore binding'
Description: as §1

human serum albumin [6] = molecular target: T2, human serum albumin; test: table of affinities (KD); BIACORE on serum albumin-coated chip according to Example 1;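 note: surface plasmon resonance with dAbs flowed over a chip carrying human, rat or mouse serum albumin, blocked uncoated flow cell as reference, KD from on- and off-rate curve fits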
Protocol: (§2) dAbs that bound serum albumin on a BIACORE chip (Biacore AB) were then further analysed to obtain information on affinity. The analysis was performed using a CM5 chip (carboxymethylated dextran matrix) that was coated with serum albumin. Flow cell 1 was an uncoated, blocked negative control, flow cell 2 was coated with HSA, flow cell 3 was coated with RSA and flow cell 4 was coated with MSA. The serum albumins were immobilised in acetate buffer pH 5.5 using the BIACORE coating wizard which was programmed to aim for 500 resonance units (RUs) of coated material. Each dAb of interest was expressed in the periplasm of E. coli on a 200 mL-500 mL scale and purified from the supernatant using batch absorption to protein A-streamline affinity resin (Amersham, UK) for the VH_{^S} and to protein L-agarose affinity resin (Affitech, Norway) for the Vκs followed by elution with glycine at pH 2.2 and buffer exchange to PBS. A range of concentrations of dAb were prepared (in the range 5 nM to 5 μM) by dilution into BIACORE HBS-EP buffer and flowed across the BIACORE chip.

rat serum albumin [7] = molecular target: T1, rat serum albumin; test: as above
Protocol: as §2

human serum albumin [8] = molecular target: T2, human serum albumin; test: BIACORE SPR, albumin on a CM5 chip, dAb in solution
Protocol: as §2

mouse serum albumin [9] = molecular target: T3, mouse serum albumin; test: table of affinities (KD); BIACORE on serum albumin-coated chip according to Example 1;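 note: surface plasmon resonance with dAbs flowed over a chip carrying human, rat or mouse serum albumin, blocked uncoated flow cell as reference, KD from on- and off-rate curve fits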
Protocol: as §2

rat serum albumin [10] = molecular target: T1, rat serum albumin; test: affinity (KD) for rat serum albumin; method not stated in the table (BIACORE SPR in Example 1)
human serum albumin [11] = molecular target: T2, human serum albumin; test: table of affinities (KD); BIACORE on serum albumin-coated chip according to Example 1; '+' = detectable binding but weak (estimated KD > 5 µM);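 for result: surface plasmon resonance with dAbs flowed over a chip carrying human, rat or mouse serum albumin, blocked uncoated flow cell as reference, KD from on- and off-rate curve fits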
Protocol: as §2

B1: DOM7r-15 (other)
VL: DIQMTQSPSSLSASVGDRVTITCRASQSIGRRLKWYQQKPGAAPRLLIYRTSWLQSGVPSRFSGSGSGTDFTLTISSLQPEDFATYYCQQTSQWPHTFGQGTKVEIKR
Q: Does B1 bind (rat serum albumin [1])?
A: binds

B2: DOM7h-21 (other)
VH: EVQLLESGGGLVQPGGSLRLSCAASGFTFDLYDMSWVRQAPGKGLEWVSSIVNSGVRTYYADSVKGRFTISRDNSKNTLYLQMNSLRAEDTAVYYCAKLNQSYHWDFDYWGQGTLVTVSS
Q: Does B2 bind (human serum albumin [2])?
A: binds

B3: DOM7h-3 (other)
VL: DIQMTQSPSSLSASVGDRVTITCRASQWIDTGLAWYQQKPGKAPRLLIYNVSRLQSGVPSRFSGSGSGTDFTLTISSLQPEDFATYYCQQYWGSPTTFGQGTKVEIKR
Q: Does B3 bind (human serum albumin [3])?
A: binds

B4: DOM7h-4 (other)
VL: DIQMTQSPSSLSASVGDRVTITCRASQEIYSWLAWYQQRPGKAPKLLIYNASHLQSGVPSRFSGSGSGTDFTLTISSLQPEDFATYYCQQVIGDPVTFGQGTKVEIKR
Q: Does B4 bind (human serum albumin [3])?
A: binds

B5: DOM7h-25 (other)
VH: EVQLLESGGGLVQPGGSLRLSCAASGFTFWKYNMAWVRQAPGKGLEWVSTILGEGNNTYYADSVKGRFTISRDNSKNTLYLQMNSLRAEDTAVYYCAKTMDYKFDYWGQGTLVTVSS
Q: Does B5 bind (human serum albumin [2])?
A: binds

B6: DOM7r-7 (other)
VL: DIQMTQSPSSLSASVGDRVTITCRASQYIGRYLRWYQQKPGKAPKLLIYDSSVLQSGVPSRFSGSGSGTDFTLTISSLQPEDFATYYCQQRYSSPYTFGQGTKVEIKR
Q: Does B6 bind (mouse serum albumin [4])?
A: binds

Q: Does B6 bind (rat serum albumin [5])?
A: binds

B7: DOM7r-4 (other)
VL: DIQMTQSPSSLSASVGDRVTITCRASQWIGRYLRWYQQKPGKAPKLLIYNGSQLQSGVPSRFSGSGSGTDFTLTISSLQPEDFATYYCQQRYLQPYTFGQGTKVEIKR
Q: Which results are given for B7?
A: binding result (mouse serum albumin [4]): binds; binding result (rat serum albumin [5]): binds

B8: DOM7r-18 (other)
VL: DIQMTQSPSSLSASVGDRVTITCRASQWIYKSLGWYQQKPGKAPKLLIYQSSLLQSGVPSRFSGSGSGTDFTLTISSLQPEDFATYYCQQYHQMPRTFGQGTKVEIKR
Q: Does B8 bind (rat serum albumin [1])?
A: binds

B9: DOM7r-5 (other)
VL: DIQMTQSPSSLSASVGDRVTITCRASQYISRQLRWYQQKPGKAPRLLIYGASVLQSGIPSRFSGSGSGTDFTLTISSLQPEDFATYYCQQRYITPYTFGQGTKVEVKR
Q: Does B9 bind (rat serum albumin [5])?
A: binds

B10: DOM7r-14 (other)
VL: DIQMTQSPSSLSASVGDRVTITCRASQHIHRELRWYQQKPGKAPKLLIYQASRLQSGVPSRFSGSGSGTDFTLTISSLQPEDFATYYCQQRYRVPYTFGQGTKVEIKR
Q: Does B10 bind (human serum albumin [6])?
A: no binding

Q: What about the Kd (rat serum albumin [7]) of the same binder?
A: 50 nM

B11: DOM7r-19 (other)
VL: DIQMTQSPSSLSASVGDRVTITCRASQWIYRHLRWYQQKPGKAPKLLIYDASRLQSGVPTRFSGSGSGTDFTLTISSLQPEDFATYYCQQTHNPPKTFGQGTKVEIKR
Q: Does B11 bind (rat serum albumin [1])?
A: binds

B12: DOM7h-2 (other)
VL: DIQMTQSPSSLSASVGDRVTITCRASQKIATYLNWYQQKPGKAPKLLIYRSSSLQSAVPSRFSGSGSGTVFTLTISSLQPEDFATYYCQQTYAVPPTFGQGTKVEIKR
Q: How did the Kd (human serum albumin [8]) turn out when B12 was run?
A: 10 to 100 nM

Q: And the Kd (mouse serum albumin [9])?
A: > 5000 nM

Q: What about the Kd (human serum albumin [6]) of the same binder?
A: 70 nM

Q: And the Kd (rat serum albumin [7])?
A: > 5000 nM

B13: DOM7r-3 (other)
VL: DIQMTQSPSSLSASVGDRVTITCRASQYIGRYLRWYQQKPGKAPKLLIYDSSVLQSGVPSRFSGSGSGTDFTLTISSLQPEDFATYYCQQRYMQPFTFGQGTKVEIKR
Q: B13 was tested. Which Kd (mouse serum albumin [9]) did it give?
A: > 5000 nM

Q: Does B13 bind (human serum albumin [6])?
A: no binding

Q: And the Kd (rat serum albumin [10])?
A: 12 nM

B14: DOM7r-13 (other)
VL: DIQMTQSPSSLSASVGDRVTITCRASQHIHRELRWYQQKPGKAPKLLIYQASRLQSGVPSRFSGSGSGTDFTLTISSLQPEDFATYYCQQKYLPPYTFGQGTKVEIKR
Q: Which results are given for B14?
A: binding result (human serum albumin [6]): no binding; Kd (rat serum albumin [7]): 80 nM

B15: DOM7r-8 (other)
VL: DIQMTQSPSSLSASVGDRVTITCRASQWIHRQLKWYQQKPGKAPKLLIYYASILQSGVPSRFSGSGSGTDFTLTISSLQPEDFATYYCQQTFSKPSTFGQGTKVEIKR
Q: B15 was tested. Which Kd (mouse serum albumin [9]) did it give?
A: 40 nM

Q: Does B15 bind (human serum albumin [6])?
A: no binding

Q: What about the Kd (rat serum albumin [7]) of the same binder?
A: 20 nM

B16: DOM7r-17 (other)
VL: DIQMTQSPSSLSASVGDRVTITCRASQKIYNNLRWYQQKPGKAPKLLIYNTSILQSGVPSRFSGSGSGTDFTLTISSLQPEDFATYYCQQRWRAPYTFGQGTKVEIKR
Q: Does B16 bind (rat serum albumin [1])?
A: binds

B17: DOM7r-16 (other)
VL: DIQMTQSPSSLSASVGDRVTITCRASQKIYKNLRWYQQKPGKAPKLLIYNSSILQSGVPSRFSGSGSGTDFTLTISSLQPEDFATYYCQQRYLSPYTFGQGTKVEIKR
Q: What does the source list for B17?
A: Kd (mouse serum albumin [9]): 1000 nM; binding result (human serum albumin [6]): no binding; Kd (rat serum albumin [10]): 1000 nM

B18: DOM7h-6 (other)
VL: DIQMTQSPSSLSASVGDRVTITCRASQSISSYLNWYQQKPGKAPTLLIYRLSVLQSGVPSRFSGSGSGTDFTLTISSLQPEDFATYYCQQTYNVPPTFGQGTKVEIKR
Q: Does B18 bind (human serum albumin [3])?
A: binds

B19: DOM7m-16 (other)
VL: DIQMTQSPSSLSASVGDRVTITCRASQSIIKHLKWYQQKPGKAPKLLIYGASRLQSGVPSRFSGSGSGTDFTLTISSLQPEDFATYYCQQGARWPQTFGQGTKVEIKR
notes: also called MSA16
Q: With B19 as the binder, how does the Kd (mouse serum albumin [9]) read?
A: 50 nM

Q: What about the Kd (human serum albumin [6]) of the same binder?
A: > 5000 nM

B20: DOM7m-26 (other)
VL: DIQMTQSPSSLSASVGDRVTITCRASQSIYYHLKWYQQKPGKAPKLLIYKASTLQSGVPSRFSGSGSGTDFTLTISSLQPEDFATYYCQQVRKVPRTFGQGTKVEIKR
notes: also called MSA 26
Q: B20 was tested. Which Kd (mouse serum albumin [9]) did it give?
A: 60 nM

Q: And the Kd (human serum albumin [6])?
A: > 5000 nM

B21: DOM7h-22 (other)
VH: EVQLLESGGGLVQPGGSLRLSCAASGFTFSKYWMSWVRQAPGKGLEWVSSIDFMGPHTYYADSVKGRFTISRDNSKNTLYLQMNSLRAEDTAVYYCAKGRTSMLPMKGKFDYWGQGTLVTVSS
Q: Does B21 bind (mouse serum albumin [9])?
A: no binding

Q: What about the Kd (human serum albumin [6]) of the same binder?
A: 60 nM

Q: Does B21 bind (rat serum albumin [7])?
A: no binding

B22: DOM7h-23 (other)
VH: EVQLLESGGGLVQPGGSLRLSCAASGFTFYDYNMSWVRQAPGKGLEWVSTITHTGGVTYYADSVKGRFTISRDNSKNTLYLQMNSLRAEDTAVYYCAKQNPSYQFDYWGQGTLVTVSS
Q: For B22, which Kd (human serum albumin [8]) is on record?
A: 500 to 5000 nM

Q: Does B22 bind (mouse serum albumin [9])?
A: no binding

Q: And the Kd (human serum albumin [6])?
A: 900 nM

Q: Does B22 bind (rat serum albumin [7])?
A: no binding

B23: DOM7h-24 (other)
VH: EVQLLESGGGLVQPGGSLRLSCAASGFTFHRYSMSWVRQAPGKGLEWVSTILPGGDVTYYADSVKGRFTISRDNSKNTLYLQMNSLRAEDTAVYYCAKQTPDYMFDYWGQGTLVTVSS
Q: Does B23 bind (human serum albumin [2])?
A: binds

B24: DOM7h-26 (other)
VH: EVQLLESGGGLVQPGGSLRLSCTASGFTFDEYNMSWVRQAPGKGLEWVSTILPHGDRTYYADSVKGRFTISRDNSKNTLYLQMNSLRAEDTAVYYCAKQDPLYRFDYWGQGTLVTVSS
Q: Which results are given for B24?
A: Kd (human serum albumin [8]): 100 to 500 nM; binding result (mouse serum albumin [9]): no binding; Kd (human serum albumin [6]): 300 nM; binding result (rat serum albumin [7]): no binding

B25: DOM7h-27 (other)
VH: EVQLLESGGGLVQPGGSLRLSCAASGFTFSDYRMSWVRQAPGKGLEWVSTIISNGKFTYYADSVKGRFTISRDNSKNTLYLQMNSLRAEDTAVYYCAKQDWMYMFDYWGQGTLVTVSS
Q: Does B25 bind (human serum albumin [2])?
A: binds

B26: DOM7r-31 (other)
VH: EVQLLESGGGLVQPGGSLRLSCTASGFTFRHYRMGWVRQAPGKGLEWVSWIRPDGTFTYYADSVKGRFTISRDNSKNTLYLQMNSLRAEDTAVYYCAKSYMGDRFDYWGQGTLVTVSS
Q: For B26, which Kd (mouse serum albumin [9]) is on record?
A: 1000 nM

Q: What about the Kd (rat serum albumin [10]) of the same binder?
A: 5000 nM

Q: What about the Kd (human serum albumin [11]) of the same binder?
A: ~10000 nM

B27: DOM7r-27 (other)
VH: EVQLLESGGGLVQPGGSLRLSCAASGFTFWPYTMSWVRQAPGKGLEWVSTISPFGSTTYYADSVKGRFTISRDNSKNTLYLQMNSLRAEDTAVYYCAKSDVLKTGLDGFDYWGQGTLVTVSS
Q: With B27 as the binder, how does the Kd (mouse serum albumin [9]) read?
A: 250 nM

Q: Does B27 bind (human serum albumin [6])?
A: no binding

Q: What about the Kd (rat serum albumin [10]) of the same binder?
A: 250 nM
